How the values were obtained:
purified protein = substrate: CC(C)=CCOP(=O)(O)O; experiment: purified protein; details: ATP 1 mM (2 mM in methods), 25 mM Tris pH 7.8, 5 mM MgCl2, 37 °C
[1] = substrate: C=C(C)CCOP(=O)(O)O; experiment: PK-LDH coupled assay, NADH A340; assay type: biochemical, Methanosarcina barkeri; details: ATP 1 mM (2 mM in methods), 25 mM Tris pH 7.8, 5 mM MgCl2, 37 °C
[2] = substrate: O=P(O)(O)OCc1ccccc1; experiment: PK-LDH coupled assay, NADH A340; assay type: biochemical, Methanosarcina barkeri; details: ATP 1 mM (2 mM in methods), 25 mM Tris pH 7.8, 5 mM MgCl2, 37 °C
[3] = substrate: Nc1ncnc2c1ncn2[C@@H]1O[C@H](COP(=O)(O)OP(=O)(O)OP(=O)(O)O)[C@@H](O)[C@H]1O; experiment: PK-LDH coupled assay, NADH A340; assay type: biochemical, Methanosarcina barkeri; details: isopentenyl phosphate (1) 1 mM, 25 mM Tris pH 7.8, 5 mM MgCl2, 37 °C
[4] = substrate: C=C(C)CCOP(=O)(O)O; experiment: PK-LDH coupled assay, NADH A340; assay type: biochemical, Methanohalophilus mahii; details: ATP 1 mM (2 mM in methods), 25 mM Tris pH 7.8, 5 mM MgCl2, 37 °C
[5] = substrate: O=P(O)(O)OCc1ccccc1; experiment: PK-LDH coupled assay, NADH A340; assay type: biochemical, Methanohalophilus mahii; details: ATP 1 mM (2 mM in methods), 25 mM Tris pH 7.8, 5 mM MgCl2, 37 °C
[6] = substrate: Nc1ncnc2c1ncn2[C@@H]1O[C@H](COP(=O)(O)OP(=O)(O)OP(=O)(O)O)[C@@H](O)[C@H]1O; experiment: PK-LDH coupled assay, NADH A340; assay type: biochemical, Methanohalophilus mahii; details: isopentenyl phosphate (1) 1 mM, 25 mM Tris pH 7.8, 5 mM MgCl2, 37 °C
[7] = substrate: C=C(C)CCOP(=O)(O)O; experiment: PK-LDH coupled assay, NADH A340; assay type: biochemical, Candidatus Nitrososphaera gargensis; details: ATP 1 mM (2 mM in methods), 25 mM Tris pH 7.8, 5 mM MgCl2, 37 °C
Excerpt: (§1) PK-LDH coupled assay, NADH A340 on CNG

[8] = substrate: O=P(O)(O)OCc1ccccc1; experiment: PK-LDH coupled assay, NADH A340; assay type: biochemical, Candidatus Nitrososphaera gargensis; details: ATP 1 mM (2 mM in methods), 25 mM Tris pH 7.8, 5 mM MgCl2, 37 °C
Excerpt: as §1

[9] = substrate: Nc1ncnc2c1ncn2[C@@H]1O[C@H](COP(=O)(O)OP(=O)(O)OP(=O)(O)O)[C@@H](O)[C@H]1O; experiment: PK-LDH coupled assay, NADH A340; assay type: biochemical, Candidatus Nitrososphaera gargensis; details: isopentenyl phosphate (1) 1 mM, 25 mM Tris pH 7.8, 5 mM MgCl2, 37 °C
Excerpt: as §1

[10] = substrate: C=C(C)CCOP(=O)(O)O; experiment: PK-LDH coupled assay, NADH A340; assay type: biochemical, Thermococcus paralvinellae; details: ATP 1 mM (2 mM in methods), 25 mM Tris pH 7.8, 5 mM MgCl2, 37 °C
[11] = substrate: O=P(O)(O)OCc1ccccc1; experiment: PK-LDH coupled assay, NADH A340; assay type: biochemical, Thermococcus paralvinellae; details: ATP 1 mM (2 mM in methods), 25 mM Tris pH 7.8, 5 mM MgCl2, 37 °C
[12] = substrate: Nc1ncnc2c1ncn2[C@@H]1O[C@H](COP(=O)(O)OP(=O)(O)OP(=O)(O)O)[C@@H](O)[C@H]1O; experiment: PK-LDH coupled assay, NADH A340; assay type: biochemical, Thermococcus paralvinellae; details: isopentenyl phosphate (1) 1 mM, 25 mM Tris pH 7.8, 5 mM MgCl2, 37 °C

B1: MSB (Methanosarcina barkeri 3) (protein)
chain: MNVSTEPVILKLGGSVITDKAADQGVVREDSLRRIAKEVSEYRGKMIIVHGAGSFGHTYAKKYQLGKVFDPEGAIVTHESVKKLASRVVDTLNEYGVRAIAVHPMCCTICRNGRIESMYLDNIKLMLENGLVPVLHGDVVMDLELRACVLSGDQIVPYLAKELKITRLGLGSAEDGVLDNDGKTVPEITPKTFEDFKHYIRGSGSTDVTGGMLGKVQELLELSKTSCITSYIFNAGKDDNIYRFLNGEPMGTTISPDKRV
notes: N-His6 fusion, pET28a NdeI/EcoRI, codon-optimised synthetic gene, E. coli Rosetta2, Ni-NTA
Km (purified protein): 32 ± 7 µM | kcat (purified protein): 10.1 s⁻¹ | kcat/Km (purified protein): 310000 M⁻¹ s⁻¹ | Km [1]: 27 ± 5 µM | kcat [1]: 10.3 ± 0.4 s⁻¹ | kcat/Km [1]: 380000 M⁻¹ s⁻¹ | Km [2]: 45 ± 8 µM | kcat [2]: 1.23 ± 0.07 s⁻¹ | kcat/Km [2]: 27000 M⁻¹ s⁻¹ | Km [3]: 90 ± 10 µM | kcat [3]: 9.1 ± 0.4 s⁻¹ | kcat/Km [3]: 100000 M⁻¹ s⁻¹

B2: MHM (Methanohalophilus mahii DSM 5219) (protein)
chain: MNEKNSDITILKIGGSVITDKSSNEGIVREKAIIRIAREISFFEGPLIIVHGAGSFGHPQAKRYSLAYKFSAEGSGVTHRSVASLNELFVNALAQRNVNAVGIHPMGCLVAKEGRISKSFLLAIQMMLEKGITPVLHGDVVMDTVKGSSVISGDQIVPYLASKLNAYRIGVGSAEDGVLDEHGHPIPLITPDNFEIASMHIGGSENTDVTGGMLGKVKEMLDMSRQTKVPSYIFNANAGGNVMSFLRGEMIGTAIKDKA
notes: as for B1
Km (purified protein): 36 ± 4 µM | kcat (purified protein): 4.1 s⁻¹ | kcat/Km (purified protein): 120000 M⁻¹ s⁻¹ | Km [4]: 50 ± 10 µM | kcat [4]: 5.2 ± 0.4 s⁻¹ | kcat/Km [4]: 100000 M⁻¹ s⁻¹ | Km [5]: 70 ± 10 µM | kcat [5]: 0.139 ± 0.008 s⁻¹ | kcat/Km [5]: 1900 M⁻¹ s⁻¹ | Km [6]: 100 ± 30 µM | kcat [6]: 6.3 ± 0.3 s⁻¹ | kcat/Km [6]: 63000 M⁻¹ s⁻¹

B3: CNG (Candidatus Nitrososphaera gargensis Ga9.2) (protein)
chain: MQKLALIKLGGSVVTFKDKPLAANTGAIDGISRVLAQLSTPAIIVHGGGSFGHYWSVKYDMHTKPAGYDPHGVSVVHESMIALNQIIINSMIRAGLNPYGMPPSVFAAGHKPVAAKIKQIYTMAKSEVMPVTFGDVVHMEGNKYSILSGDALMTMLAKVLRPSRVVFATNVDGIYKDMASRELMREIRVTTGRKKRSIEFSKASGADVTGGMQRKVAEAFKIASRGMDVLMVNGLMPERIAEAVVEGTRLQVGTVVKGSRR
notes: as for B1
Km (purified protein): 390 ± 90 µM | kcat (purified protein): 0.87 s⁻¹ | kcat/Km (purified protein): 2200 M⁻¹ s⁻¹ | Km [7]: 61 ± 9 µM | kcat [7]: 1.12 ± 0.05 s⁻¹ | kcat/Km [7]: 18000 M⁻¹ s⁻¹ | Km [8]: 1200 ± 200 µM | kcat [8]: 0.83 ± 0.07 s⁻¹ | kcat/Km [8]: 700 M⁻¹ s⁻¹ | Km [9]: 21 ± 5 µM | kcat [9]: 0.81 ± 0.06 s⁻¹ | kcat/Km [9]: 39000 M⁻¹ s⁻¹

B4: TCP (Thermococcus paralvinellae) (protein)
chain: MIIIKLGGSVISDKEKEYSFHRHIVEQIAEEIAQFYPDESFILVHGGGSFGHPNAREYKITEGLVGDVDRKRIGFSKTHQAMLKLNDLIIQTFLEKGLPAYSVSSSSIFLLENKEVVYGELEILRKLLELKFIPVLFGDTAIALDKGIDILSGDQIVSYLAKMLKPSKVIFLMDVDGIYDRNPKERDAKLIEELNVEEIRHLLESSESAGIDVTGGIGNKLREALKIAKHSEVYFINGKVKENLGKAIRGEKVGTRLRKLEHPKIS
notes: as for B1
Km [10]: 22 ± 6 µM | kcat [10]: 0.62 ± 0.03 s⁻¹ | kcat/Km [10]: 28000 M⁻¹ s⁻¹ | Km [11]: 69 ± 10 µM | kcat [11]: 0.039 ± 0.002 s⁻¹ | kcat/Km [11]: 560 M⁻¹ s⁻¹ | Km [12]: 15 ± 3 µM | kcat [12]: 0.59 ± 0.03 s⁻¹ | kcat/Km [12]: 39000 M⁻¹ s⁻¹ | Km (purified protein): 70 ± 10 µM | kcat (purified protein): 24 s⁻¹ | kcat/Km (purified protein): 360000 M⁻¹ s⁻¹

From article PMC8500459, “Novel Homologs of Isopentenyl Phosphate Kinase Reveal Class‐Wide Substrate Flexibility” (Chemcatchem, 2021)
